The target in the test is T1, cyclophilin A (CypA), human (human, UniProt P62937 1-165).
T1 construct: human cyclophilin A (peptidyl-prolyl cis-trans isomerase A)
Briefly: ITC; recombinant CypA or Nup358Cyp against recombinant CA^NTD, without cyclosporine; done as described in ref. 25. Particulars: both partners purified.

B1: SIVmac capsid N-terminal domain (CA^NTD) (domain or fragment)
chain: not shown
modifications: No candidate fits. The accession (SIVmac Gag, isolate Mm142-83) is from memory because the isolate is not printed. Limits are CA residues 1-144, matching HIV-1 CA 1-146 (pdb 1M9D entity 2). Check …
For the molecule B1, the Kd was approximately 800 µM.

These data come from article PMC3234246, “HIV-1 Capsid-Cyclophilin Interactions Determine Nuclear Import Pathway, Integration Targeting and Replication Efficiency” (PLoS Pathogens, 2011).
